# Assay results as given in paper PMC8303963, “Action of Multiple Rice β-Glucosidases on Abscisic Acid Glucose Ester” (International Journal of Molecular Sciences, 2021).
# B1: Os4BGlu12 (Oryza sativa Japonica Group) (protein)
# chain: AYNGAGEPPVSRRSFPKGFIFGTASSSYQYEGGAAEGGRGPSIWDTFTHQHPEKIADRSNGDVASDSYHLYKEDVRLMKDMGMDAYRFSISWTRILPNGSLRGGVNKEGIKYYNNLINELLSKGVQPFITLFHWDSPQALEDKYNGFLSPNIINDFKDYAEICFKEFGDRVKNWITFNEPWTFCSNGYATGLFAPGRCSPWEKGNCSVGDSGREPYTACHHQLLAHAETVRLYKAKYQALQKGKIGITLVSHWFVPFSRSKSNDDAAKRAIDFMFGWFMDPLIRGDYPLSMRGLVGNRLPQFTKEQSKLVKGAFDFIGLNYYTANYADNLPPSNGLNNSYTTDSRANLTGVRNGIPIGPQAASPWLYVYPQGFRDLLLYVKENYGNPTVYITENGVDEFNNKTLPLQEALKDDARIEYYHKHLLSLLSAIRDGANVKGYFAWSLLDNFEWSNGYTVRFGINFVDYNDGRKRYPKNSAHWFKKFLLK
# notes: recombinant from E. coli, IMAC purified; N-terminal thioredoxin and His6 tags cut off with enterokinase
# Substrate: CC1=CC(=O)CC(C)(C)[C@@]1(O)/C=C/C(C)=C\C(=O)O[C@@H]1O[C@H](CO)[C@@H](O)[C@H](O)[C@H]1O
# Assay: glucose release by peroxidase/glucose oxidase assay, Michaelis-Menten fit
# Type: biochemical, Oryza sativa
# Details: 50 mM sodium acetate pH 5, 30 °C
# Text: glucose release by peroxidase/glucose oxidase assay, Michaelis-Menten fit on Os4BGlu12
protein,measurement,value
B1,Km,10.9 ± 0.9 mM
same,kcat,7.5 ± 0.0002 s⁻¹
same,kcat/Km,689 M⁻¹ s⁻¹
